Reference: US20090175866A1, “TREATMENT OF B-CELL MALIGNANCIES” (priority 2004, published 2009)

What was measured:
FGFR1 = FGFR1 (Homo sapiens, UniProt P11362); assay: FGF-stimulated proliferation of FDCP-FGFR1 cells (XTT); type: cell-based; conditions: up to 10 fold higher concentrations than the FDCP-FGFR3 IC50
From the text: FIG. 1D is a graph showing proliferation of FGFR expressing FDCP cells in the presence of increasing concentrations of PRO-001 as determined by XTT analysis. Data are the average of duplicate cultures. The X axis represents concentration of PRO-001 Fab. The Y axis represents % inhibition.
Non-transformed rat chondrocyte cell line expressing PGFR3 in an inducible manner (RCJ-FGFR3) has been described previously (Rauchenberger R. et al. J. Biol. Chem. 2003; 278:38194-205). […]
(§1) Cell viability was assessed by 3-(4,5-dimethylthiazol)-2,5-diphenyl tetrazolium (MTT) or (2,3-bis(2-methoxy-4-nitro-5-sulphophenyl)-5-[(phenylamino) carbonyl]-2H-tetrazolium hydroxide (XTT) dye absorbance where indicated. Cells were seeded in 96-well plates at a density of 20,000 (FDCP-1 cells), 5,000 (B9 cells) or 25,000 cells (MM cell lines) per well in culture medium. Cells were incubated in the absence or presence of one of the following cytokines: 10 ng/ml FGF9 and 5 μg/ml heparin, 1% murine IL-6, 50 ng/ml IGF-1 or 50 ng/ml human IL-6 where indicated and increasing concentrations of PRO-001, control antibody (purified human Fab) or 100 nM PD173074. […]

KMS11 (FGFR3-Y373C) = assay: Viability of KMS11 myeloma cells; type: cell-based, human; conditions: cells grow independent of FGF
Method: (§2) Non-transformed rat chondrocyte cell line expressing PGFR3 in an inducible manner (RCJ-FGFR3) has been described previously (Rauchenberger R. et al. J. Biol. Chem. 2003; 278:38194-205). Cells were maintained in α-Minimum Essential Media supplemented with 15% fetal calf serum (FCS), 2 mM L-Glutamine, 100 U/ml penicillin, 100 μg/ml streptomycin, 600 μg/ml G418 (Gibco BRL, Ontario, Canada), 2 μg/ml Tetracyclin (Sigma, Ontario, Canada), and 50 μg/ml HygromycinB (Gibco BRL). FGFR3 expression was induced by removal of tetracyclin and serum starvation. […]
as §1

KMS18 (FGFR3-G384D) = assay: Viability of KMS18 myeloma cells; type: cell-based, human; conditions: cells grow independent of FGF
Method: as §2, §1

ERK1/2 phosphorylation = ERK1/2 phosphorylation in aFGF-stimulated UTMC2 cells (flow cytometry); type: cell-based, human
From the text: FIG. 3 is a flow cytometry chart showing phosphorylation of ERK (Extracellular signal-regulated protein kinase) in UTMC2 cells. The filled histogram represents UTMC2 without FGF stimulation (unstimulated); the light line represents cells stimulated with FGF and treated with a control antibody (FGF/vehicle); the dark line represents cells stimulated with FGF and treated with PRO-001 (FGF/PRO-001).
Determination of ERK1/2 phosphorylation by flow cytometry has been described previously (Chow S, et al., Cytometry 2001; 46:72-78). Cells were serum-starved overnight and then stimulated with 30 ng/ml of aFGF and 10 μg/ml heparin for 10 minutes at 37° C. The cells were immediately fixed by adding 10% formaldehyde directly into the culture medium to obtain a final concentration of 2%. Cells were incubated in fixative for 10 min at 37° C. then on ice for an additional 2 minutes. The cells were permeabilized by adding ice-cold methanol (to a final concentration of 90%) while vortexing and incubated on ice for 30 minutes. […] Flow cytometry was performed on a FACSCaliber® flow cytometer (BD Biosciences, San Jose, Calif.) and analyzed using Cellquest® software (Becton Dickinson).

Chain of FGFR1 (P11362 22-822, species assumed): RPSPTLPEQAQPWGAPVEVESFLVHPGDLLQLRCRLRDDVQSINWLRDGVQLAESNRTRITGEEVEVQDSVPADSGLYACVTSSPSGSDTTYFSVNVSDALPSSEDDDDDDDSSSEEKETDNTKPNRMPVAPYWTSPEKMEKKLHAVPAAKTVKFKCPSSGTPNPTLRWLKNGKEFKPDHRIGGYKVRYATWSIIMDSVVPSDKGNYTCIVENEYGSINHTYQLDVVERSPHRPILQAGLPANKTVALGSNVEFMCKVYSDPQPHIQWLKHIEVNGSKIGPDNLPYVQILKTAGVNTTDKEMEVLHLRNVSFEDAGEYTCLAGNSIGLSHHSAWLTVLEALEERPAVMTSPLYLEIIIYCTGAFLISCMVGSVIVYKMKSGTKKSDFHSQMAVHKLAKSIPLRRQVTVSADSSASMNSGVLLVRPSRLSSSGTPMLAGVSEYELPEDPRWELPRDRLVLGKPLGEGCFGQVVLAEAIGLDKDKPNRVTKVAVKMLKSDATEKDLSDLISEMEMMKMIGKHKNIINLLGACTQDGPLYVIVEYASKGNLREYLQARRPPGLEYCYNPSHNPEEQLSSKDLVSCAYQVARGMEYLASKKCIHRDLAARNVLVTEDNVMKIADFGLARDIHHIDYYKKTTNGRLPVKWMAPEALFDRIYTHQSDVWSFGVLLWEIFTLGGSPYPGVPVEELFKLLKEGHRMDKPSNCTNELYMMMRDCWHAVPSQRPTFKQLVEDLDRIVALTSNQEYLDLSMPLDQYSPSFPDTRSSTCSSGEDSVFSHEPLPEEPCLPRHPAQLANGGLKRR

B1: PRO-001: human anti-FGFR3 Fab from HuCAL library; VH-CDR3 SEQ ID NO:1, VL-CDR3 SEQ ID NO:10; VH SEQ ID NO:19, VL SEQ ID NO:28 (antibody, V domains shown)
VH: QVQLQQSGPGLVKPSQTLSLTCAISGDSVSSNSAAWNWIRQSPGRGLEWLGRTYYRSKWYNDYAVSVKSRITINPDTSKNQFSLQLNSVTPEDTAVYYCARSYYPDFDYWGQGTLVTVSS
VL: DIELTQPPSVSVAPGQTARISCSGDALGDKYASWYQQKPGQAPVLVIYDDSDRPSGIPERFSGSNSGNTATLTISGTQAEDEADYYCQSYDGPDLWVFGGGTKLTVLGQ
Proliferation of FDCP-1 cells expressing FGFR1 (FGFR1): unaffected | Viability of KMS11 (FGFR3-Y373C) (KMS11 (FGFR3-Y373C)): failed to inhibit the viability | Viability of KMS18 (FGFR3-G384D) (KMS18 (FGFR3-G384D)): failed to inhibit the viability | Levels of phosphorylated ERK in aFGF-stimulated UTMC2 cells (ERK1/2 phosphorylation): return to those of unstimulated cells
